Publication PMC11680790, “Structural and functional determination of peptide versus small molecule ligand binding at the apelin receptor” (Nature Communications, 2024)
pKd: −log10 of the molar value. Each block holds one substance with its values, some of them ahead of it.

Assays:
[1] = target: apelin receptor NxStaR (stabilised human apelin receptor) (human) (UniProt P35414); experiment: SPR; Biacore 8K+; receptors immobilised on NTA chip (Ni-NTA capture and amine coupling); 10 °C; pH 7.5 buffer (0.01 M HEPES, […] NaCl, 0.02% DDM, 5% DMSO); single-cycle, four concentrations; 1:1 model
[2] = target: apelin receptor NxStaR (stabilised human apelin receptor) (human) (UniProt P35414); experiment: SPR; Biacore 8K+; receptors immobilised on NTA chip (Ni-NTA capture and amine coupling); 10 °C; pH 6.0 buffer ([…] MES, […] NaCl, 0.02% DDM, 5% DMSO); single-cycle, four concentrations; 1:1 model
[3] = target: wild-type apelin receptor tagged C-terminally with eGFP (human) (UniProt P35414); experiment: fluorescent ligand binding on cells (high content confocal imaging); CHO-K1 cells transiently transfected with receptor-eGFP; apelin647 300 nM or ELA647 1 µM in HBSS, 90 min, room temperature, washed and fixed; mean membrane fluorescence of eGFP-positive cells as % WT; non-specific binding with 10 µM [Pyr1]apelin-13
Sequence of wild-type apelin receptor tagged C-terminally with eGFP (human) (P35414 whole entry): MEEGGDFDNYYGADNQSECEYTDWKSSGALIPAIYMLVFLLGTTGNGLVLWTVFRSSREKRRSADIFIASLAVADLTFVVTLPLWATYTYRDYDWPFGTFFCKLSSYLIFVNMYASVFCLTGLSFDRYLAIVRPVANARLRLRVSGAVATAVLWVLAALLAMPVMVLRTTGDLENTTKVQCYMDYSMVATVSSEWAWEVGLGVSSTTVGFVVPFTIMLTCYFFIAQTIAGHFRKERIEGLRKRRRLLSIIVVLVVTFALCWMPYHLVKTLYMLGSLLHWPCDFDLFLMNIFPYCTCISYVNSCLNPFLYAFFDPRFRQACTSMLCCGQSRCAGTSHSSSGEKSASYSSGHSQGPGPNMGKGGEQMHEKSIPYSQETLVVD

[4] = target: apelin receptor NxStaR (stabilised human apelin receptor) (human) (UniProt P35414); experiment: SPR; Biacore T200; receptor immobilised on NTA chip (Ni-NTA capture and amine coupling); 10 °C; 0.01 M HEPES pH 7.5, […] NaCl, 0.02% DDM, 5% DMSO; single-cycle, 6.25-100 nM for Apelin-13 and ΔC2; 1:1 model

pKd [1]: 8.49 | pKd [2]: 7.68
Substance: NXE'992, chimeric peptide (pyrazole-QRPRL[AIB]S[PipALA]VPFP)

membrane apelin647 fluorescence (% WT) [3]: 100 % WT
Substance: apelin647 fluorescently labelled peptide

membrane ELA647 fluorescence (% WT) [3]: 100 % WT
Substance: ELA647 fluorescently labelled peptide

pKd [4]: 8.24
Substance: apelin-13 ΔC2 (C-terminally truncated apelin-13 ending with M11) (peptide)
